Measurements taken from patent US12410253B2, “Compositions comprising anti-NRP2 antibodies” (aTyr Pharma, Inc., priority 2019, dated 2025).
Entries after “also recorded” stand apart in the source; their conditions may differ.

Tests used:
[1] = molecular target: T1, Human NRP2 (aa23-855) (Homo sapiens, UniProt O60462); assay: SPR binding affinity of anti-NRP2 antibodies to human NRP2 antigen; conditions: KD = kd/ka, Langmuir (1:1) model
T1 construct: Human NRP2 (aa23-855)
T1 sequence (O60462 23-855 isoform O60462-3): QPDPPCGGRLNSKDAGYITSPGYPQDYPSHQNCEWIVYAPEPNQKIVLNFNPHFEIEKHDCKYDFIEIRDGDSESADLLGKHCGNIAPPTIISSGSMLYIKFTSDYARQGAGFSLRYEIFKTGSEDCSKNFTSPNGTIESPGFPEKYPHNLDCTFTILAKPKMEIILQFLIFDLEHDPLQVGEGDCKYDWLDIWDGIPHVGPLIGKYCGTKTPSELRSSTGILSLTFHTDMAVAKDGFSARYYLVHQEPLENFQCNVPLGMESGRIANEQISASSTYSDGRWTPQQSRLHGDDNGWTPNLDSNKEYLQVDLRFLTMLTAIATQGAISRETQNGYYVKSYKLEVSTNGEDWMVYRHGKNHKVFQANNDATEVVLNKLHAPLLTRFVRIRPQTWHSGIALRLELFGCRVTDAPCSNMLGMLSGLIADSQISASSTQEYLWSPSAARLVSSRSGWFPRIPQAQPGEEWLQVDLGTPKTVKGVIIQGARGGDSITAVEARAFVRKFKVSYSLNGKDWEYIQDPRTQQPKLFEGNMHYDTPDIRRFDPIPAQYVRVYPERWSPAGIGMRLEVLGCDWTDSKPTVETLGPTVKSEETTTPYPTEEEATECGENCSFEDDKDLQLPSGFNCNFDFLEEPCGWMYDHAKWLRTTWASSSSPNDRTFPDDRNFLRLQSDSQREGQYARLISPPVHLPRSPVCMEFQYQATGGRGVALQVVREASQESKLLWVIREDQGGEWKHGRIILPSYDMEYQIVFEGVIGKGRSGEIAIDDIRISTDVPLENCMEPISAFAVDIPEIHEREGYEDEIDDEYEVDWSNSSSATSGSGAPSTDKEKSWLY

[2] = test system: NRP2/PLXNA1; assay: Split-luciferase receptor dimerization assay, NRP2/PLXNA1 with SEMA3F; assay type: cell-based, human; conditions: antibody 100 nM; ligand induced dimerization
Procedure: To further extend the assessment of the biological activity of the anti-NRP2 antibodies, their activity was assessed in a receptor dimerization assay. In brief, vectors encoding a split luciferase pBiT1.1 and pBiT2.1 were obtained from Promega corporation (Madison, Wisconsin). The complete extracellular domain and transmembrane helices of NRP2a (version 2), NRP2b (version 5) (See table N1), FLT4 (VEGFR3), KDR (VEGFR2), and plexin A1 (PLXNA1) were cloned into the vectors and screened for optimal orientation, receptor density, and ligand induced dimerization, following established methods. Expi293 cells (Fisher) were transfected at 1 million cells/mL ˜20 hours prior to the assay with NRP2 and a co-receptor at equal mass amounts. Cells were counted, and 100,000 live cells were plated in a well of a white luminometer plate in Live Cell Imaging Solution (Fisher). Nano-Glo assay substrate (Promega) was added, and the plate was read on a Glomax 96 luminometer at room temperature to establish baseline luminescence. Antibodies were added to the well at 100 nM and the plate was again read to establish a new baseline and monitor the effects of the antibodies on spontaneous receptor dimerization. Depending on the receptor pair, typically 200 nM SEMA3F-p95 (aTyr Pharma), 2 nM VEGF-C(R&D Systems, Minnesota), or 2 nM VEGF165 (R&D Systems, Minnesota) were then added and the plate was again read to measure dimerization of receptors. Normalized responses for each individual well were calculated to the time point prior to addition of ligand, then normalized to no-antibody/no-ligand (baseline signal). Replicates were then processed to give average response and standard deviation. Results are summarized in Table E3 below, and shown graphically in FIGS. 3-10.

[3] = test system: MDA-MB-231; assay: 3D soft agar colony formation assay, MDA-MB-231; assay type: cell-based, human
Procedure: Anchorage-independent growth is the ability of transformed cells to grow independently of a solid surface, and is a hallmark of carcinogenesis. The soft agar colony formation assay is a well-established method for characterizing this capability in vitro (J Vis Exp. 2014; (92): 51998). Human triple negative breast cancer (TNBC) cell lines MDA-MB-231 (HTB-26™) and BT549 (HTB122™) were obtained from ATCC and employed in this assay.
MDA-MB-231 was cultured in 1×RPMI media containing 10% FBS and 1% P/S. BT549 was cultured in 1×RPMI media containing 10% FBS, 0.023 U/mL insulin and 1% P/S. Cells were recovered and expanded from frozen stocks for 2-3 passages. The NRP2-high population was sorted out on FACS equipment following cell surface staining by a fluorophore-conjugated anti-NRP2 antibody. […] The chemo drug Cisplatin or 5-FU was added at a final concentration of IC30 or 1/2 IC30, based on a preliminary test that determined their inhibition curves on MDA-MB-231 cells, in combination with the antibodies a-NRP2-10v10 or its isotype control hIgG4 at 100 nM. […] After 6 or 9 days of treatment, the soft agar matrix was dissolved and the formed cell colonies were quantified using CyQuant dye diluted in PBS (provided in the Cell Biolab kit), which produced a fluorescence signal proportional to viable cells.

B1: aNRP2-11v7: humanized, affinity matured anti-NRP2 antibody, target domain b2; VH SEQ ID NO: 51, VL SEQ ID NO: 52 (antibody, V domains shown)
VH: QVQLVQSGAEVKKPGASVKVSCKASGYTFTSFGISWVRQAPGQGLEWIGEIYPRSGNTYYNENFKGRATMTADKSTSTAYMELRSLRSDDTAVYYCARSSGYYGSTPFPYWGQGTLVTVSS
VL: DIQMTQSPSSLSASVGDRVTITCRASQDISNYLNWYQQKPGKAVKLLIYYTSRLHSGVPSRFSGSGSGTDYTFTISSLQPEDIATYYCQQGNTLPWTFGGGTKVEIK
modifications: Variable heavy chain region; Light chain variable region
Question: With B1 as the molecule, how does the Kd [1] read?
Answer: 950 pM

Question: And the “effect on NRP2-plexin heterodimerization (in words)” value [2]?
Answer: increased the ligand induced dimerization signal

B2: aNRP2-10v10: humanized, affinity matured anti-NRP2 antibody, target domain b1, VEGF-C blocking; VH SEQ ID NO: 49, VL SEQ ID NO: 50 (antibody, V domains shown)
VH: EVQLVQSGAEVKKPGATVKISCKVSGFNIKDYYVHWVQQAPGKGLEWMGRIDVEDDETKYAPKFQGRVTITADTSTDTAYMELSSLRSEDTAVYYCATPIYGAREAWFAYWGQGTLVTVSS
VL: DIQMTQSPSSLSASVGDRVTITCTASSSVSSSYLHWYQQKPGKAPKLLIYRTSNLASGVPSRFSGSGSGTDFTLTISSLQPEDFATYYCHQYYRSPPTFGGGTKVEIK
modifications: Variable heavy chain region; Light chain variable region
Question: B2 was tested. Which Kd [1] did it give?
Answer: 29 pM

Question: And the “effect on NRP2-plexin heterodimerization (in words)” value [2]?
Answer: without significantly inhibiting

Question: What about the “colony formation, soft agar, antibody treatment alone (MDA-MB-231)” value ([3]; aNRP2-10v10 treatment alone) of the same molecule?
Answer: no obvious effect

Question: And the “colony formation by MDA-MB-231 cells, soft agar” value ([3]; antibody 100 nM in combination with Cisplatin or 5-FU (IC30 or 1/2 IC30), compared to hIgG4 control, NRP2-high sorted cells)?
Answer: significantly more pronounced; also recorded: significant inhibition of colony formation
